Laboratory results published in the supplement of paper PMC10266784.

B1: library; numbered along this chain (parent)
chain: MAAAAAAAAEQQSSNGPVKKSMREKAVERRSVNKEHNSNFKAGYIPIDEDRLHKTGLRGRKGNLAICVIILLFILAVINLIITLVIWAVIRIGPNGCDSMEFHESGLLRFKQVSDMGVIHPLYKSTVGGRRNENLVITGNNQPIVFQQGTTKLSVENNKTSITSDIGMQFFDPRTQNILFSTDYETHEFHLPSGVKSLNVQKASTERITSNATSDLNIKVDGRAIVRGNEGVFIMGKTIEFHMGGNMELKAENSIILNGSVMVSTTRLPSSSSGDQLGSGDWVRYKLCMCADGTLFKVQVTSQNMGCQISDNPCGNTH

Variants of: B1
Assay: SGCB cell-surface expression functional score (HA stain, bin4 vs bin1, normalised to synonymous) (log10 ratio); higher = more cell-surface SGCB (functional)
Method in brief: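 Sorting and sequencing yield the functional score, defined as the log ratio of a variant's highest-bin frequency to its lowest-bin frequency, with the median taken over codons and replicate transductions. The libraries, codon-saturation sets of HA-tagged, YFP-fused human beta-sarcoglycan, went into HEK293 cells stably carrying alpha-, gamma- and delta-sarcoglycan by duplicate lentiviral transduction at MOI <0.1. Cells were stained on ice with Alexa Fluor 647 anti-HA, fixed and split into four 5% intensity bins, and synonymous variants were scaled per section to mean 0, SD 0.5.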

Variant	SGCB cell-surface expression functional score (log10)
MAAAAAAAAEQQSSNGPVKKSMREKAVERRSVNKEHNSNFKAGYIPIDEDRLHKTGLRGRKGNLAICVIILLFILAVINLIITLVIWAVIRIGPNGCDSMEFHESGLLRFKQVSDMGVIHPLYKSTVGGRRNENLVITGNNQPIVFQQGTTKLSVENNKTSITSDIGMFFFDPRTQNILFSTDYETHEFHLPSGVKSLNVQKASTERITSNATSDLNIKVDGRAIVRGNEGVFIMGKTIEFHMGGNMELKAENSIILNGSVMVSTTRLPSSSSGDQLGSGDWVRYKLCMCADGTLFKVQVTSQNMGCQISDNPCGNTH [Q169F]	-1.89
MAAAAAAAAEQQSSNGPVKKSMREKAVERRSVNKEHNSNFKAGYIPIDEDRLHKTGLRGRKGNLAICVIILLFILAVINLIITLVIWAVIRIGPNGCDSMEFHESGLLRFKQVSDMGVIHPLYKSTVGGRRNENLVITGNNQPIVFQQGTTKLSVENNKTSITSDIGMCFFDPRTQNILFSTDYETHEFHLPSGVKSLNVQKASTERITSNATSDLNIKVDGRAIVRGNEGVFIMGKTIEFHMGGNMELKAENSIILNGSVMVSTTRLPSSSSGDQLGSGDWVRYKLCMCADGTLFKVQVTSQNMGCQISDNPCGNTH [Q169C]	-1.24
MAAAAAAAAEQQSSNGPVKKSMREKAVERRSVNKEHNSNFKAGYIPIDEDRLHKTGLRGRKGNLAICVIILLFILAVINLIITLVIWAVIRIGPNGCDSMEFHESGLLRFKQVSDMGVIHPLYKSTVGGRRNENLVITGNNQPIVFQQGTTKLSVENNKTSITSDIGMGFFDPRTQNILFSTDYETHEFHLPSGVKSLNVQKASTERITSNATSDLNIKVDGRAIVRGNEGVFIMGKTIEFHMGGNMELKAENSIILNGSVMVSTTRLPSSSSGDQLGSGDWVRYKLCMCADGTLFKVQVTSQNMGCQISDNPCGNTH [Q169G]	-1.16
MAAAAAAAAEQQSSNGPVKKSMREKAVERRSVNKEHNSNFKAGYIPIDEDRLHKTGLRGRKGNLAICVIILLFILAVINLIITLVIWAVIRIGPNGCDSMEFHESGLLRFKQVSDMGVIHPLYKSTVGGRRNENLVITGNNQPIVFQQGTTKLSVENNKTSITSDIGMEFFDPRTQNILFSTDYETHEFHLPSGVKSLNVQKASTERITSNATSDLNIKVDGRAIVRGNEGVFIMGKTIEFHMGGNMELKAENSIILNGSVMVSTTRLPSSSSGDQLGSGDWVRYKLCMCADGTLFKVQVTSQNMGCQISDNPCGNTH [Q169E]	0.46
MAAAAAAAAEQQSSNGPVKKSMREKAVERRSVNKEHNSNFKAGYIPIDEDRLHKTGLRGRKGNLAICVIILLFILAVINLIITLVIWAVIRIGPNGCDSMEFHESGLLRFKQVSDMGVIHPLYKSTVGGRRNENLVITGNNQPIVFQQGTTKLSVENNKTSITSDIGMDFFDPRTQNILFSTDYETHEFHLPSGVKSLNVQKASTERITSNATSDLNIKVDGRAIVRGNEGVFIMGKTIEFHMGGNMELKAENSIILNGSVMVSTTRLPSSSSGDQLGSGDWVRYKLCMCADGTLFKVQVTSQNMGCQISDNPCGNTH [Q169D]	-0.37
MAAAAAAAAEQQSSNGPVKKSMREKAVERRSVNKEHNSNFKAGYIPIDEDRLHKTGLRGRKGNLAICVIILLFILAVINLIITLVIWAVIRIGPNGCDSMEFHESGLLRFKQVSDMGVIHPLYKSTVGGRRNENLVITGNNQPIVFQQGTTKLSVENNKTSITSDIGMAFFDPRTQNILFSTDYETHEFHLPSGVKSLNVQKASTERITSNATSDLNIKVDGRAIVRGNEGVFIMGKTIEFHMGGNMELKAENSIILNGSVMVSTTRLPSSSSGDQLGSGDWVRYKLCMCADGTLFKVQVTSQNMGCQISDNPCGNTH [Q169A]	-1.13
MAAAAAAAAEQQSSNGPVKKSMREKAVERRSVNKEHNSNFKAGYIPIDEDRLHKTGLRGRKGNLAICVIILLFILAVINLIITLVIWAVIRIGPNGCDSMEFHESGLLRFKQVSDMGVIHPLYKSTVGGRRNENLVITGNNQPIVFQQGTTKLSVENNKTSITSDIGVQFFDPRTQNILFSTDYETHEFHLPSGVKSLNVQKASTERITSNATSDLNIKVDGRAIVRGNEGVFIMGKTIEFHMGGNMELKAENSIILNGSVMVSTTRLPSSSSGDQLGSGDWVRYKLCMCADGTLFKVQVTSQNMGCQISDNPCGNTH [M168V]	-0.11
MAAAAAAAAEQQSSNGPVKKSMREKAVERRSVNKEHNSNFKAGYIPIDEDRLHKTGLRGRKGNLAICVIILLFILAVINLIITLVIWAVIRIGPNGCDSMEFHESGLLRFKQVSDMGVIHPLYKSTVGGRRNENLVITGNNQPIVFQQGTTKLSVENNKTSITSDIGPQFFDPRTQNILFSTDYETHEFHLPSGVKSLNVQKASTERITSNATSDLNIKVDGRAIVRGNEGVFIMGKTIEFHMGGNMELKAENSIILNGSVMVSTTRLPSSSSGDQLGSGDWVRYKLCMCADGTLFKVQVTSQNMGCQISDNPCGNTH [M168P]	-0.24
MAAAAAAAAEQQSSNGPVKKSMREKAVERRSVNKEHNSNFKAGYIPIDEDRLHKTGLRGRKGNLAICVIILLFILAVINLIITLVIWAVIRIGPNGCDSMEFHESGLLRFKQVSDMGVIHPLYKSTVGGRRNENLVITGNNQPIVFQQGTTKLSVENNKTSITSDIGWQFFDPRTQNILFSTDYETHEFHLPSGVKSLNVQKASTERITSNATSDLNIKVDGRAIVRGNEGVFIMGKTIEFHMGGNMELKAENSIILNGSVMVSTTRLPSSSSGDQLGSGDWVRYKLCMCADGTLFKVQVTSQNMGCQISDNPCGNTH [M168W]	-2.06
MAAAAAAAAEQQSSNGPVKKSMREKAVERRSVNKEHNSNFKAGYIPIDEDRLHKTGLRGRKGNLAICVIILLFILAVINLIITLVIWAVIRIGPNGCDSMEFHESGLLRFKQVSDMGVIHPLYKSTVGGRRNENLVITGNNQPIVFQQGTTKLSVENNKTSITSDIGYQFFDPRTQNILFSTDYETHEFHLPSGVKSLNVQKASTERITSNATSDLNIKVDGRAIVRGNEGVFIMGKTIEFHMGGNMELKAENSIILNGSVMVSTTRLPSSSSGDQLGSGDWVRYKLCMCADGTLFKVQVTSQNMGCQISDNPCGNTH [M168Y]	-1.79
MAAAAAAAAEQQSSNGPVKKSMREKAVERRSVNKEHNSNFKAGYIPIDEDRLHKTGLRGRKGNLAICVIILLFILAVINLIITLVIWAVIRIGPNGCDSMEFHESGLLRFKQVSDMGVIHPLYKSTVGGRRNENLVITGNNQPIVFQQGTTKLSVENNKTSITSDIGSQFFDPRTQNILFSTDYETHEFHLPSGVKSLNVQKASTERITSNATSDLNIKVDGRAIVRGNEGVFIMGKTIEFHMGGNMELKAENSIILNGSVMVSTTRLPSSSSGDQLGSGDWVRYKLCMCADGTLFKVQVTSQNMGCQISDNPCGNTH [M168S]	-1.21
MAAAAAAAAEQQSSNGPVKKSMREKAVERRSVNKEHNSNFKAGYIPIDEDRLHKTGLRGRKGNLAICVIILLFILAVINLIITLVIWAVIRIGPNGCDSMEFHESGLLRFKQVSDMGVIHPLYKSTVGGRRNENLVITGNNQPIVFQQGTTKLSVENNKTSITSDIGLQFFDPRTQNILFSTDYETHEFHLPSGVKSLNVQKASTERITSNATSDLNIKVDGRAIVRGNEGVFIMGKTIEFHMGGNMELKAENSIILNGSVMVSTTRLPSSSSGDQLGSGDWVRYKLCMCADGTLFKVQVTSQNMGCQISDNPCGNTH [M168L]	0.01
MAAAAAAAAEQQSSNGPVKKSMREKAVERRSVNKEHNSNFKAGYIPIDEDRLHKTGLRGRKGNLAICVIILLFILAVINLIITLVIWAVIRIGPNGCDSMEFHESGLLRFKQVSDMGVIHPLYKSTVGGRRNENLVITGNNQPIVFQQGTTKLSVENNKTSITSDIGNQFFDPRTQNILFSTDYETHEFHLPSGVKSLNVQKASTERITSNATSDLNIKVDGRAIVRGNEGVFIMGKTIEFHMGGNMELKAENSIILNGSVMVSTTRLPSSSSGDQLGSGDWVRYKLCMCADGTLFKVQVTSQNMGCQISDNPCGNTH [M168N]	-2.1
MAAAAAAAAEQQSSNGPVKKSMREKAVERRSVNKEHNSNFKAGYIPIDEDRLHKTGLRGRKGNLAICVIILLFILAVINLIITLVIWAVIRIGPNGCDSMEFHESGLLRFKQVSDMGVIHPLYKSTVGGRRNENLVITGNNQPIVFQQGTTKLSVENNKTSITSDIGHQFFDPRTQNILFSTDYETHEFHLPSGVKSLNVQKASTERITSNATSDLNIKVDGRAIVRGNEGVFIMGKTIEFHMGGNMELKAENSIILNGSVMVSTTRLPSSSSGDQLGSGDWVRYKLCMCADGTLFKVQVTSQNMGCQISDNPCGNTH [M168H]	-1.85
MAAAAAAAAEQQSSNGPVKKSMREKAVERRSVNKEHNSNFKAGYIPIDEDRLHKTGLRGRKGNLAICVIILLFILAVINLIITLVIWAVIRIGPNGCDSMEFHESGLLRFKQVSDMGVIHPLYKSTVGGRRNENLVITGNNQPIVFQQGTTKLSVENNKTSITSDIGQQFFDPRTQNILFSTDYETHEFHLPSGVKSLNVQKASTERITSNATSDLNIKVDGRAIVRGNEGVFIMGKTIEFHMGGNMELKAENSIILNGSVMVSTTRLPSSSSGDQLGSGDWVRYKLCMCADGTLFKVQVTSQNMGCQISDNPCGNTH [M168Q]	-1.74
MAAAAAAAAEQQSSNGPVKKSMREKAVERRSVNKEHNSNFKAGYIPIDEDRLHKTGLRGRKGNLAICVIILLFILAVINLIITLVIWAVIRIGPNGCDSMEFHESGLLRFKQVSDMGVIHPLYKSTVGGRRNENLVITGNNQPIVFQQGTTKLSVENNKTSITSDIGRQFFDPRTQNILFSTDYETHEFHLPSGVKSLNVQKASTERITSNATSDLNIKVDGRAIVRGNEGVFIMGKTIEFHMGGNMELKAENSIILNGSVMVSTTRLPSSSSGDQLGSGDWVRYKLCMCADGTLFKVQVTSQNMGCQISDNPCGNTH [M168R]	-0.79
MAAAAAAAAEQQSSNGPVKKSMREKAVERRSVNKEHNSNFKAGYIPIDEDRLHKTGLRGRKGNLAICVIILLFILAVINLIITLVIWAVIRIGPNGCDSMEFHESGLLRFKQVSDMGVIHPLYKSTVGGRRNENLVITGNNQPIVFQQGTTKLSVENNKTSITSDIGKQFFDPRTQNILFSTDYETHEFHLPSGVKSLNVQKASTERITSNATSDLNIKVDGRAIVRGNEGVFIMGKTIEFHMGGNMELKAENSIILNGSVMVSTTRLPSSSSGDQLGSGDWVRYKLCMCADGTLFKVQVTSQNMGCQISDNPCGNTH [M168K]	-0.76
MAAAAAAAAEQQSSNGPVKKSMREKAVERRSVNKEHNSNFKAGYIPIDEDRLHKTGLRGRKGNLAICVIILLFILAVINLIITLVIWAVIRIGPNGCDSMEFHESGLLRFKQVSDMGVIHPLYKSTVGGRRNENLVITGNNQPIVFQQGTTKLSVENNKTSITSDIGTQFFDPRTQNILFSTDYETHEFHLPSGVKSLNVQKASTERITSNATSDLNIKVDGRAIVRGNEGVFIMGKTIEFHMGGNMELKAENSIILNGSVMVSTTRLPSSSSGDQLGSGDWVRYKLCMCADGTLFKVQVTSQNMGCQISDNPCGNTH [M168T]	-1.24
MAAAAAAAAEQQSSNGPVKKSMREKAVERRSVNKEHNSNFKAGYIPIDEDRLHKTGLRGRKGNLAICVIILLFILAVINLIITLVIWAVIRIGPNGCDSMEFHESGLLRFKQVSDMGVIHPLYKSTVGGRRNENLVITGNNQPIVFQQGTTKLSVENNKTSITSDIGIQFFDPRTQNILFSTDYETHEFHLPSGVKSLNVQKASTERITSNATSDLNIKVDGRAIVRGNEGVFIMGKTIEFHMGGNMELKAENSIILNGSVMVSTTRLPSSSSGDQLGSGDWVRYKLCMCADGTLFKVQVTSQNMGCQISDNPCGNTH [M168I]	-0.24
